Sequences and labels used below:
B1: Nucleosome-remodeling factor subunit BPTF, residues 2862 to 2918; numbered along this chain, Q12830 (parent)
chain: TKKDTKLYCICKTPYDESKFYIGCDRCQNWYHGRCVGILQSEAELIDEYVCPQCQST

± gives the uncertainty stated by the source.

In this data set the parent is B1. The experiment in a line: abundance fitness (aPCA) (normalised: wild type 0, dead -1); higher = more abundant; growth selection in yeast, the domain comes from the species named. The note with it: Homo sapiens.
As for TKKDTKLYCICKTPYDESKFYIGCDRCQNWYHGRCVGILQSEAELIDEYVKPQCQST [C51K], the abundance fitness was -0.774 ± 0.16.
To TKKDTKLYCICKTPYDESKFYIGCDRCQNWYHGRCVGILQSEAELIDEYVSPQCQST [C51S] belongs -0.53 ± 0.089; to TKKDTKLYCICKTPYDESKFYIGCDRCQNWYHGRCVGILQSEAELIDEYVDPQCQST [C51D], -0.718 ± 0.14.
As for TKKDTKLYCICKTPYDESKFYIGCDRCQNWYHGRCVGILQSEAELIDEYVMPQCQST [C51M], the figure is -0.688 ± 0.15.
To TKKDTKLYCICKTPYDESKFYIGCDRCQNWYHGRCVGILQSEAELIDEYVAPQCQST [C51A] belongs -0.777 ± 0.094.
For the variant TKKDTKLYCICKTPYDESKFYIGCDRCQNWYHGRCVGILQSEAELIDEYVHPQCQST [C51H], the abundance fitness is -0.848 ± 0.23.
As for TKKDTKLYCICKTPYDESKFYIGCDRCQNWYHGRCVGILQSEAELIDEYVTPQCQST [C51T], the figure is -0.981 ± 0.13.
As for TKKDTKLYCICKTPYDESKFYIGCDRCQNWYHGRCVGILQSEAELIDEYVEPQCQST [C51E], the figure is -0.75 ± 0.096; as for TKKDTKLYCICKTPYDESKFYIGCDRCQNWYHGRCVGILQSEAELIDEYVQPQCQST [C51Q], -0.98 ± 0.15.
For the variant TKKDTKLYCICKTPYDESKFYIGCDRCQNWYHGRCVGILQSEAELIDEYVNPQCQST [C51N], the abundance fitness is -0.904 ± 0.16.
To TKKDTKLYCICKTPYDESKFYIGCDRCQNWYHGRCVGILQSEAELIDEYVCPQRQST [C54R] belongs -0.875 ± 0.1; to TKKDTKLYCICKTPYDESKFYIGCDRCQNWYHGRCVGILQSEAELIDEYVCPQGQST [C54G], -0.755 ± 0.14.
To TKKDTKLYCICKTPYDESKFYIGCDRCQNWYHGRCVGILQSEAELIDEYVCPQPQST [C54P] belongs -0.64 ± 0.12.
To TKKDTKLYCICKTPYDESKFYIGCDRCQNWYHGRCVGILQSEAELIDEYVCPQDQST [C54D] belongs -0.819 ± 0.17; to TKKDTKLYCICKTPYDESKFYIGCDRCQNWYHGRCVGILQSEAELIDEYVCPQFQST [C54F], -1.06 ± 0.14.
Consider TKKDTKLYCICKTPYDESKFYIGCDRCQNWYHGRCVGILQSEAELIDEYVCPQSQST [C54S], for which the abundance fitness is -0.889 ± 0.085.
To TKKDTKLYCICKTPYDESKFYIGCDRCQNWYHGRCVGILQSEAELIDEYVCPQKQST [C54K] belongs -0.613 ± 0.1.
To TKKDTKLYCICKTPYDESKFYIGCDRCQNWYHGRCVGILQSEAELIDEYVCPQEQST [C54E] belongs -0.776 ± 0.16; to TKKDTKLYCICKTPYDESKFYIGCDRCQNWYHGRCVGILQSEAELIDEYVCPQWQST [C54W], -0.802 ± 0.12; to TKKDTKLYCICKTPYDESKFYIGCDRCQNWYHGRCVGILQSEAELIDEYVCPQIQST [C54I], -1.06 ± 0.15.
To TKKDTKLYCICKTPYDESKFYIGCDRCQNWYHGRCVGILQSEAELIDEYVCPQTQST [C54T] belongs -1.01 ± 0.12.
In the case of TKKDTKLYCICKTPYDESKFYIGCDRCQNWYHGRCVGILQSEAELIDEYVCPQNQST [C54N], the abundance fitness was -0.802 ± 0.16.
To TKKDTKLYCICKTPYDESKFYIGCDRCQNWYHGRCVGILQSEAELIDEYVCPQMQST [C54M] belongs -0.648 ± 0.11; to TKKDTKLYCICKTPYDESKFYIGCDRCQNWYHGRCVGILQSEAELIDEYVCPQHQST [C54H], -0.512 ± 0.13.
As for TKKDTKLYCICKTPYDESKFYIGCDRCQNWYHGRCVGILQSEAELIDEYVCPQVQST [C54V], the figure is -0.934 ± 0.1; as for TKKDTKLYCICKTPYDESKFYIGCDRCQNWYHGRCVGILQSEAELIDEYVCPQAQST [C54A], -0.851 ± 0.12.
As for TKKDTKLYCICKTPYDESKFYIGCDRCQNWYHGRCVGILQSEAELIDEYVCPQYQST [C54Y], the figure is -0.983 ± 0.13; as for TKKDTKLYCICKTPYDESKFYIGCDRCQNWYHGRCVGILQSEAELIDEYVCFQCQST [P52F], 0.032 ± 0.12; as for TKKDTKLYCICKTPYDESKFYIGCDRCQNWYHGRCVGILQSEAELIDEYVCVQCQST [P52V], -0.017 ± 0.08.
On to TKKDTKLYCICKTPYDESKFYIGCDRCQNWYHGRCVGILQSEAELIDEYVCGQCQST [P52G], for which the abundance fitness was -0.019 ± 0.079.
As to TKKDTKLYCICKTPYDESKFYIGCDRCQNWYHGRCVGILQSEAELIDEYVCIQCQST [P52I], the abundance fitness was -0.108 ± 0.14.
With TKKDTKLYCICKTPYDESKFYIGCDRCQNWYHGRCVGILQSEAELIDEYVCDQCQST [P52D], the abundance fitness was 0.113 ± 0.12.
Turning to TKKDTKLYCICKTPYDESKFYIGCDRCQNWYHGRCVGILQSEAELIDEYVCEQCQST [P52E], the abundance fitness came out at 0.009 ± 0.091.
TKKDTKLYCICKTPYDESKFYIGCDRCQNWYHGRCVGILQSEAELIDEYVCMQCQST [P52M]: the abundance fitness is -0.149 ± 0.11.
As for TKKDTKLYCICKTPYDESKFYIGCDRCQNWYHGRCVGILQSEAELIDEYVCRQCQST [P52R], the figure is -0.048 ± 0.077.
With TKKDTKLYCICKTPYDESKFYIGCDRCQNWYHGRCVGILQSEAELIDEYVCCQCQST [P52C], the abundance fitness was -0.186 ± 0.11.
To TKKDTKLYCICKTPYDESKFYIGCDRCQNWYHGRCVGILQSEAELIDEYVCLQCQST [P52L] belongs -0.125 ± 0.076; to TKKDTKLYCICKTPYDESKFYIGCDRCQNWYHGRCVGILQSEAELIDEYVCTQCQST [P52T], -0.071 ± 0.079; to TKKDTKLYCICKTPYDESKFYIGCDRCQNWYHGRCVGILQSEAELIDEYVCYQCQST [P52Y], -0.327 ± 0.14.
To TKKDTKLYCICKTPYDESKFYIGCDRCQNWYHGRCVGILQSEAELIDEYVCSQCQST [P52S] belongs 0.054 ± 0.082; to TKKDTKLYCICKTPYDESKFYIGCDRCQNWYHGRCVGILQSEAELIDEYVCAQCQST [P52A], -0.058 ± 0.08.
As for TKKDTKLYCICKTPYDESKFYIGCDRCQNWYHGRCVGILQSEAELIDEYVCWQCQST [P52W], the figure is -0.345 ± 0.13.
For the variant TKKDTKLYCICKTPYDESKFYIGCDRCQNWYHGRCVGILQSEAELIDEYVCQQCQST [P52Q], the abundance fitness was -0.033 ± 0.12.
To TKKDTKLYCICKTPYDESKFYIGCDRCQNWYHGRCVGILQSEAELIDEYVCKQCQST [P52K] belongs 0.126 ± 0.1; to TKKDTKLYCICKTPYDESKFYIGCDRCQNWYHGRCVGILQSEAELIDEYVCPQCDST [Q55D], 0.174 ± 0.1.
In the case of TKKDTKLYCICKTPYDESKFYIGCDRCQNWYHGRCVGILQSEAELIDEYVCPQCCST [Q55C], the abundance fitness was -0.072 ± 0.09.
TKKDTKLYCICKTPYDESKFYIGCDRCQNWYHGRCVGILQSEAELIDEYVCPQCAST [Q55A]: the abundance fitness was -0.025 ± 0.084.

Values taken from the Human Domainome abundance scans (Beltran et al. 2025).
